# Measurements taken from the RNAGym collection of RNA variant scans (doi:10.7554/elife.90254).
# B1: OR4K15 (parent)
# chain: GUUAACGGUCAUAGGCCAUGGAAACUAGGAGCACCAUUUCGCUGCCAGUGAAGAAAUGAACAAAGAAAAUCUGGGCCAGGCAGGCAUCAAAAGAAAUAGUCUUGCGCUCAACCAGAAAGUCUGUAAUCAUUUUAAGGGUA
# Variants of: B1
# Test: self-cleavage, relative activity (ratio to wild type); higher = more cleavage; in vitro, sequencing; the parent is a self-cleaving ribozyme
row,Variant,self-cleavage
1,U2G A68G,0.43
2,A116G U131G,0.3
3,A98G U120C,0.23
4,G44A A54G,1.57
5,G41C A51C,0.71
6,C107A U133A,0.02
7,U124C A140G,0.57
8,C112U A118G,0
9,U57C G75A,0.12
10,A82U A92G,0.22
11,U2C U108C,0.03
12,U26C A30C,0.98
13,A89G U108G,0.01
14,A96G A126G,1.01
15,A18U A111U,0.12
16,U39G A47U,0.98
17,U2A U70C,0.67
18,U97A U103A,0.18
19,A98U U131A,0.49
20,A91G G106A,0.01
21,A51U A117G,2.45
22,A22C U38C,2.55
23,A78U U87C,0.31
24,U57A A98G,0.42

row,Variant,self-cleavage
1,U37C A63G,0.79
2,A69G U120A,1.44
3,C46U A56G,1.12
4,U130A U131C,1.75
5,U26C C46U,0.81
6,A47G U97A,1.21
7,A30G A60U,0.79
8,U39A A116G,1.2
9,A60G C85U,1.31
10,U87C U103C,0.95
11,G48A A110G,0.12
12,A11G U39C,0.96
13,A47U U100C,2.2
14,U57A A66G,0.73
15,A52C U108C,0.03
16,A62G A95U,2
17,G7A A90G,1.26
18,G7U U39C,0.54
19,U37C A60G,0.54
20,U3C A92G,1.48
21,A111U A129G,0.19
22,U38C A68G,0.84
23,A30G U38C,1.62
24,A95U,1.65

row,Variant,self-cleavage
1,A5G U127A,2.43
2,U9C U38G,2.11
3,A22G U139C,1.24
4,U49C U124C,0.71
5,U39A A69G,1.5
6,A66G A90U,1.31
7,C35U A111U,0.05
8,A62C U87A,1.54
9,A13G U108C,0.05
10,C10A A47U,1
11,G74U A114U,0.04
12,C40U A55G,1.67
13,A5G U12C,1.02
14,A11U U100A,0.62
15,A95U A117U,0.55
16,A52U A64G,1.71
17,A22U A90G,0.91
18,G84A A117G,2.38
19,G7U U12C,0.79
20,U133G,0.38
21,A33G A86U,0.87
22,A30C A56G,1.27
23,C25U A62G,0.59
24,C6U,0.75

row,Variant,self-cleavage
1,U49C U132A,1.65
2,C34A A52G,1.28
3,G50U A114U,0.08
4,A64U U72A,0.05
5,G106A A118G,0.02
6,A51C A95G,1.65
7,G44U,1.91
8,A51G A60G,1.2
9,A98G U132A,0.41
10,A82G A117C,0.06
11,A82U A116G,0.09
12,A5G U19A,0.53
13,A23G A86G,0.99
14,U38C C109A,0.51
15,A24G G58U,1.92
16,A55G A82U,0.22
17,A24G A110C,0.55
18,A52G G138U,2.54
19,U37C U57A,0.99
20,U12C U72C,0.18
21,A129G U133C,1.42
22,G41U U130C,1.59
23,U70A U72C,0.22
24,G7U C77U,1.9

row,Variant,self-cleavage
1,U57C C76U,0.13
2,A13G A36G,0.49
3,U9C U139C,2.45
4,U37A C61U,0.86
5,A33C G74A,0.38
6,A22G A56G,1.01
7,A47C C105U,0.32
8,A18U A55G,1.85
9,G14C A51G,1.01
10,U3C A33G,0.79
11,A5G A66G,0.87
12,A69G A90G,1.43
13,A24U U87A,1.8
14,A33C U122A,1.61
15,U43C A135U,0.71
16,A60G G74U,0.18
17,U2C U26A,0.37
18,A47U A111G,0.04
19,G48A A126G,1.15
20,A69G A134G,1.17
21,C16A A55G,0.37
22,A95G G137U,2.07
23,U103A A118G,0.41
24,A66G A94G,1.55

row,Variant,self-cleavage
1,U57C U102C,1.38
2,C46U A67U,2.2
3,U49C G137U,2.29
4,A67U A134G,1.09
5,A55G A129U,1.43
6,C42A G79U,0.02
7,A33C A67U,1.28
8,A36G U108A,0.01
9,A89U A116U,0.46
10,C35G A59G,1.58
11,A92G U139A,2.12
12,G8A U49C,2.37
13,U12A A60G,1.36
14,A68G C121U,0.29
15,U97C U133C,1.53
16,C25U U87C,1.11
17,A4G A56G,1.02
18,U57A U70C,0.48
19,A27U A36G,1.64
20,A33G G138A,0.65
21,A64U A89G,1.6
22,U72C U124C,0.17
23,A36U A111G,0.02
24,A36G U122A,1.66

row,Variant,self-cleavage
1,A69G A89G,0.86
2,A91G A116C,0.04
3,U2G U39A,0.87
4,A126G A134G,1.17
5,U37A,1.27
6,G75A U122C,0.08
7,A51G U133A,1.15
8,G28A A78U,0.18
9,U122C,0.93
10,U3G U26C,0.94
11,A30C A125G,0.31
12,A55G U97C,1.27
13,A98G A117U,0.3
14,A56G A67G,0.97
15,A125G U127C,0.27
16,A18G G115U,0.14
17,A11C A78C,0.16
18,U2C A27G,0.85
19,A116U U120C,0.15
20,A62C A94G,1.61
21,A47G A98U,0.85
22,A56G A78G,0.25
23,A5U A89G,1.15
24,A90G A140G,0.65

row,Variant,self-cleavage
1,U72A A92U,0.13
2,G80A A129U,0.02
3,U19C G119A,2.13
4,A36G A111C,0
5,U26A U39A,0.92
6,A110U U130C,1.06
7,A47G A90U,0.8
8,C71A U132C,0.58
9,U72C A98U,0.3
10,A23G G48U,0.73
11,A78G A118G,0.29
12,U57C A111G,0.01
13,C6U U132C,0.63
14,A22G G48A,1.56
15,A47G A52G,0.87
16,A36G A89U,2.21
17,U87G A134G,0.44
18,A116C A117G,0.04
19,A47U U139G,1.4
20,U70C A91U,1.07
21,G7U A47G,1.17
22,G136C,1.29
23,A96U U132C,1.95
24,A54U A125G,0.83

row,Variant,self-cleavage
1,G21A A27U,1.32
2,A24C U132C,1.46
3,A22G A54G,0.84
4,C6U U57A,0.77
5,A52G A126G,0.47
6,A92C A114G,0.98
7,A111U U124C,0.08
8,A47U A59U,0.57
9,A55U A59U,1.92
10,U2C U43C,1.57
11,A13U A82G,0.84
12,A59G A118U,0.74
13,G75C U97C,0.12
14,A82G U120C,0.11
15,U49C U108A,0.01
16,A96G A118G,1.4
17,A18G U130C,1.01
18,U49C A51U,0.99
19,A82U U97A,0.34
20,A63G U108C,0.02
21,U9C A60G,1.41
22,U72G U97G,0.3
23,A18U U120C,1.1
24,A23G A30U,0.82

row,Variant,self-cleavage
1,C101A U124C,0.08
2,A23G C101U,0.35
3,C6U A56G,0.64
4,U2C U122C,0.25
5,A129U A134U,1.18
6,A13U A56G,1.44
7,G7A A69U,1.79
8,U43C U130C,0.47
9,A86U U130C,1.44
10,U12A U43C,0.49
11,C46U U72C,0.21
12,U102C U130C,1.64
13,U37C U124C,0.62
14,A33G A117G,0.7
15,G65A,1.5
16,U3C A64G,0.7
17,G7A A117G,0.51
18,A60G A82G,0.21
19,G44A U131C,1.53
20,A13G U39C,0.92
21,A59G U120A,1.23
22,A95G C107U,0.01
23,A18G U124A,0.9
24,G14C A18G,1.59

row,Variant,self-cleavage
1,U37G U130C,0.05
2,C32U A110G,0.23
3,A52G U132A,0.88
4,A22G U103G,0.05
5,A23G A51U,1.22
6,A52G A111C,0
7,A59G U131A,1.54
8,A5U A82U,0.38
9,A30U U43C,1.88
10,A24G A90U,1.65
11,A66G U132C,0.6
12,A5G C121U,1.14
13,U19C A94G,1.53
14,C35U A69G,1.1
15,A13U A114G,0.09
16,C10A A86G,0.31
17,C17U A89G,1.23
18,A114G A129U,0.13
19,A13G A96U,1.14
20,U49A A129G,0.63
21,A51U U127A,1.75
22,A51U U127C,0.76
23,C32U A69G,1.21
24,A68G U103G,0.04

row,Variant,self-cleavage
1,A86G U122C,0.88
2,A4G A90G,1.11
3,U37C U87A,1.49
4,U2C A23U,1.22
5,A11G U26C,1.27
6,U43C U100C,2.35
7,A23G A60G,0.97
8,A24G U131C,1.17
9,A66C A95G,1.92
10,A82U,0.14
11,U12A A92G,1.37
12,U57A A92G,1.42
13,G31U A54G,1.34
14,U72C G136A,0.7
15,A22U A96G,1.57
16,U38C A47U,0.77
17,A33G A67U,1.36
18,A59U A62U,1.44
19,A22U U120A,1.95
20,A62U A64U,1.06
21,A56G U132A,2.05
22,A23U G29A,2.77
23,U70A U132C,0.6
24,C32U U124A,0.41

row,Variant,self-cleavage
1,A11G A78U,0.26
2,A24G A59U,0.51
3,A30G U139A,1.46
4,A22G A33U,1.4
5,G14A A114U,0.01
6,A47U A116C,0.05
7,A82G C113U,0.05
8,A4G A95C,1.49
9,A4G A95G,1.4
10,G75A C77U,0.11
11,U26C A92G,1.45
12,A5U A126U,0
13,G15C A67G,1.63
14,U2C A59G,0.91
15,U102C A135C,1.02
16,A92G A125U,1.59
17,G74U A116U,0.03
18,G50A A52G,2.63
19,A69G A91U,1.63
20,A129U A135U,0.42
21,A23U A78G,0.31
22,C32U A94G,1.5
23,A55G A62U,1.41
24,A117U A125G,0.99

row,Variant,self-cleavage
1,A63U A98U,1.84
2,U19C G83A,1.68
3,G41A U70C,1.12
4,U70A A94G,0.72
5,A54U U70C,0.53
6,U100A U122C,0.28
7,G29A A96G,2.13
8,A33G A98U,1.19
9,A4G A96C,0.67
10,A30G C112U,0.04
11,A78C A82G,0.11
12,A114U A118U,0.02
13,A5U A11G,1.49
14,G75A A91G,0.14
15,A56G A114C,0.02
16,A60G G99U,0.38
17,G99A A134G,0.6
18,A62U A92G,1.34
19,U100C U127G,2.43
20,U3C A60C,0.91
21,U72C A117G,0.22
22,U43C A118C,1.4
